Experimental data taken from article PMC6451099 (Nucleic Acids Research, 2019).
Blank lines part the entries; values can stand above or below the binder they belong to.

B1: FLAG-eEF1BδL (purified) (natural protein)
chain: MRSGKASCTLETVWEDKHKYEEAERRFYEHEATQAAASAQQLPAEGPAMNGPGQDDPEDADEAEAPDGGSRRDPRKSQDSRKPLQKKRKRSPKSGLGPADLALLGLSAERVWLDKSLFDQAESSYRQKLADVAAQAAWPPALAPWGLCTHGNQVACHHVTWGIWVNKSSFDQAERAFVEWSQALLLAPDGSRRQGTPNTGQQVAVPDLAHQPSPPVNGQPPLGSLQALVREVWLEKPRYDAAERGFYEALFDGHPPGKVRLQERAGLAEGARRGRRDRRGRNILGNKRAGLRRADGEAPSALPYCYFLQKDAEAPWLSKPAYDSAECRHHAAEALRVAWCLEAASLSHRPGPRSGLSVSSLRPNRKMATNFLAHEKIWFDKFKYDDAERRFYEQMNGPVAGASRQENGASVILRDIARARENIQKSLAGSSGPGASSGTSGDHGELVVRIASLEVENQSLRGVVQELQQAISKLEARLNVLEKSSPGHRATAPQTQHVSPMRQVEPPAKKPATPAEDDEDDDIDLFGSDNEEEDKEAAQLREERLRQYAEKKAKKPALVAKSSILLDVKPWDDETDMAQLEACVRSIQLDGLVWGASKLVPVGYGIRKLQIQCVVEDDKVGTDLLEEEITKFEEHVQSVDIAAFNKI
B3: His-HSF1 (purified) (natural protein, human, UniProt Q00613 1-529, looked up)
chain: MDLPVGPGAAGPSNVPAFLTKLWTLVSDPDTDALICWSPSGNSFHVFDQGQFAKEVLPKYFKHNNMASFVRQLNMYGFRKVVHIEQGGLVKPERDDTEFQHPCFLRGQEQLLENIKRKVTSVSTLKSEDIKIRQDSVTKLLTDVQLMKGKQECMDSKLLAMKHENEALWREVASLRQKHAQQQKVVNKLIQFLISLVQSNRILGVKRKIPLMLNDSGSAHSMPKYSRQFSLEHVHGSGPYSAPSPAYSSSSLYAPDAVASSGPIISDITELAPASPMASPGGSIDERPLSSSPLVRVKEEPPSPPQSPRVEEASPGRPSSVDTLLSPTALIDSILRESEPAPASVTALTDARGHTDTEGRPPSPPPTSTPEKCLSVACLDKNELSDHLDAMDSNLDNLQTMLSSHGFSVDTSALLDLFSPSVTVPDMSLPDLDSSLASIQELLSPQEPPRPPEAENSSPDSGKQLVHYTAQPLFLLDPGSVDTGSNDLPVLFELGEGSYFSEGDGFAEDPTISLLTGSEPPKAKDPTVS

Tests used:
Test in all cases: pull-down
GST-RNF20/FLAG-RNF40 = GST-RNF20/FLAG-RNF40 (human, UniProt Q5VTR2 1-975; O75150 1-1001)
Sequence of GST-RNF20/FLAG-RNF40 (Q5VTR2 whole entry, chain 1 of 2): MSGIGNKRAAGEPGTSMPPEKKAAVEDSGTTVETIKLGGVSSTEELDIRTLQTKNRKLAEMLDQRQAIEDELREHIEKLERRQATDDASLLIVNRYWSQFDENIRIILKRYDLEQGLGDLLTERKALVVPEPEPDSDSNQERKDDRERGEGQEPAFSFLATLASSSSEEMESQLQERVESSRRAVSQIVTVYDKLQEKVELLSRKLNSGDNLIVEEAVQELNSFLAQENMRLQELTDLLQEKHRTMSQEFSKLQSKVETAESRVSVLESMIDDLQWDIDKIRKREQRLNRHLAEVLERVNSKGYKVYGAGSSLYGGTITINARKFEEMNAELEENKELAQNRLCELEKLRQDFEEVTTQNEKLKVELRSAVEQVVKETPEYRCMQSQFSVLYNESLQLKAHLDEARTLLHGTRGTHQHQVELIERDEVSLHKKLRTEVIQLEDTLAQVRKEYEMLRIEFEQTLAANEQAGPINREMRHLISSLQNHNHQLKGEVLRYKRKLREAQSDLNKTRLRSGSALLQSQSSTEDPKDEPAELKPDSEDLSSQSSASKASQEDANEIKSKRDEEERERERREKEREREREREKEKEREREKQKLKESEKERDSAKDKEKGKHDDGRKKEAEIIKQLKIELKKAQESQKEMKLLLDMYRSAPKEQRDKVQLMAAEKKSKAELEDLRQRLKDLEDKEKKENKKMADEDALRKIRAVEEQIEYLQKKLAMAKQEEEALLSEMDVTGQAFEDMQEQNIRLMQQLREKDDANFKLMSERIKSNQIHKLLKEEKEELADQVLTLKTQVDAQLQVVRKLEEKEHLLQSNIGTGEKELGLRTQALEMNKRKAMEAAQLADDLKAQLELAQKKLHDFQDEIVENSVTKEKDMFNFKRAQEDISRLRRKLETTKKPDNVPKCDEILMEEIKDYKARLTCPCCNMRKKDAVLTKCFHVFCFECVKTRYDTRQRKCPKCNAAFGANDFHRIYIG
Sequence of GST-RNF20/FLAG-RNF40 (O75150 whole entry, chain 2 of 2): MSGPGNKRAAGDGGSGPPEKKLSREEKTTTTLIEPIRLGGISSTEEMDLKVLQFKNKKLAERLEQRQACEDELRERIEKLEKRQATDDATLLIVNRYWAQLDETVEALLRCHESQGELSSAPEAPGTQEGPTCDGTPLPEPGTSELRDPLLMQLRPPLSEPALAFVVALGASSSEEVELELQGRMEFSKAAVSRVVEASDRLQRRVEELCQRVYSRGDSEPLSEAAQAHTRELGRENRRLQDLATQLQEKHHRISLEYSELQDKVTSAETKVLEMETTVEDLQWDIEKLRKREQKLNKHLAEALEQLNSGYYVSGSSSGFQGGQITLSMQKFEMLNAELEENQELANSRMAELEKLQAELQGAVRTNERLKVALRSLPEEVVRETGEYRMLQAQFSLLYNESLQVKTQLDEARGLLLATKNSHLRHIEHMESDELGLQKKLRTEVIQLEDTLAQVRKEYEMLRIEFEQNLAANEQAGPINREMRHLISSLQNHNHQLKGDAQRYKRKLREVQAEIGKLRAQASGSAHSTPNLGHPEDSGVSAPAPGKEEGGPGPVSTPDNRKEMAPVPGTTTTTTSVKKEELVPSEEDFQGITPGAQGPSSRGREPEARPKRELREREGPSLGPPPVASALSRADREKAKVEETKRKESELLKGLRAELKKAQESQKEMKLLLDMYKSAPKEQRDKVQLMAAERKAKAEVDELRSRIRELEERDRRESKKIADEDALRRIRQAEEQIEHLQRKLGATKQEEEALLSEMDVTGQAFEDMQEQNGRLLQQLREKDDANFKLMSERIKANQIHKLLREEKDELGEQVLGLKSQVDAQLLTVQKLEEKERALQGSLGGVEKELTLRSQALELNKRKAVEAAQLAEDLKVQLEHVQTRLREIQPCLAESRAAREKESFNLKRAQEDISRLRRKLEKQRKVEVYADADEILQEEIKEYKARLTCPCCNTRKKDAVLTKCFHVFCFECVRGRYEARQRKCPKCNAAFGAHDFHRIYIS

His-HSF1 (purified) = target: B3
FLAG-eEF1BδL (purified) = target: B1

Binder: B1
binding result (GST-RNF20/FLAG-RNF40): binds

binding result (His-HSF1 (purified)): binds
B2: GST-eEF1BδL fragment of residues 181–367 (domain or fragment, human, UniProt P29692-2 181-367, looked up)
chain: SQALLLAPDGSRRQGTPNTGQQVAVPDLAHQPSPPVNGQPPLGSLQALVREVWLEKPRYDAAERGFYEALFDGHPPGKVRLQERAGLAEGARRGRRDRRGRNILGNKRAGLRRADGEAPSALPYCYFLQKDAEAPWLSKPAYDSAECRHHAAEALRVAWCLEAASLSHRPGPRSGLSVSSLRPNRKM

Binder: B3
binding result (FLAG-eEF1BδL (purified)): binds
